Assay results published in the supplement of paper PMC10126150.
± gives the standard deviation of the averaged measurements.

Test system: ATP
Test: switch fluorescence ratio, 500 uM ATP over buffer (Cy3 cluster intensity, sum of 5 cycles each) (fold (ratio)); higher = stronger signal-on switching upon ATP binding; sequences stand for … in TCGTCGGCAGCGTCAGATGTGTATAAGAGACAGTTTTTTTTTTTTTTTTTTTTTTTTT…TC
Details: aptamer strand: ATP DNA aptamer (quencher-CACCTGGGGGAGTATTGCGGAGGAAGG + anchor), 100 nM annealed; ATP concentration: 500 uM
How it was run: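 Per cluster, summed Cy3 intensity from the target cycles was divided by that from the buffer cycles to give the fluorescence ratio, then averaged per switch-domain sequence. Clusters outside 100-1000 RFU were excluded. The Cy3-labelled switching-strand clusters, on a modified Illumina MiSeq flow-cell, were annealed to 100 nM quencher-labelled ATP aptamer and imaged in selection buffer, then after 15 min with 500 uM ATP at 22 °C, for five cycles with NaOH stripping and re-annealing between them.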
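Also: ATP exposure 15 min at 22 °C before imaging.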

Sequence	switch fluorescence ratio
TGGGAATTTC	1.035 ± 0.0034
CATGTATTAT	0.985 ± 0.034
GCTGTTTCGG	0.981 ± 0.01
TGGGTGGGTG	1.04 ± 0.053
TGAGGGAGTG	0.996 ± 0.021
TGTTGGAGGC	0.9713 ± 0.0072
CGCGTGGTA	1.07 ± 0.013
GGGCTTAGAG	1.012 ± 0.007
TGGCATCGGG	1.01 ± 0.042
AAGAAAATAC	1 ± 0.024
CGTTTTGATA	1.01 ± 0.012
TGGGCTTCGT	0.994 ± 0.038
CGCATGAGGC	1.18 ± 0.045
TTGGGCAATA	1.77 ± 0.35
GGAATTTGTT	1 ± 0.021
CAGCTAGGTG	1.54 ± 0.029
TGTTTTCAGT	0.975 ± 0.02
TCAGAATCGT	0.988 ± 0.026
TACGAGTCGT	1.01 ± 0.022
ATAAGGAACG	1.01 ± 0.061
TGGGAACGTC	1.0205 ± 2.8e-05
ATGCGCCGGT	1.011 ± 0.0027
GCTTTGGTTT	0.983 ± 0.022

Sequence	switch fluorescence ratio
CGGGTAGGTA	1 ± 0.012
AGGCGGTTTG	0.985 ± 0.034
TTAAAAGGAA	1.004 ± 0.0034
GTGGACATTA	1.01 ± 0.012
ACGTTCGCGG	0.985 ± 0.028
TAGGGGGGGT	1 ± 0.031
GCTTAAGTTA	1 ± 0.057
TAAAGTACGT	1.11 ± 0.021
GAGTTTCGTG	0.965 ± 0.01
GTTCATAAAG	0.98 ± 0.028
TAAACAATTT	0.978 ± 0.013
TTCCAGGGTG	1.71 ± 0.92
CCATTTTTTA	0.9825 ± 0.0097
TTCAGCTACA	1.02 ± 0.029
CTCATATTTA	1.01 ± 0.019
TTGTGAAATT	0.993 ± 0.015
AGGGATTCAT	1.02 ± 0.032
TAATTTATAC	1.053 ± 0.0054
CTATGATCTG	0.989 ± 0.065
TTGGAGGAAA	1.09 ± 0.13
ATTCAGAAGA	1.07 ± 0.12
TTGGGGAGGT	1.01 ± 0.037
GTAGAATGTG	0.983 ± 0.03

Sequence	switch fluorescence ratio
AGGGGTATCT	0.9739 ± 0.007
AAATAATTGC	1.01 ± 0.038
GGGCTTGCAA	1.04 ± 0.016
GCTGAGCGGA	0.995 ± 0.035
GGTTGATCCG	1.01 ± 0.0092
CCGGTTAAGG	1 ± 0.05
TTTGTCCGGT	0.971 ± 0.018
GGAATAGATG	1.026 ± 0.0015
AAATTTGTGT	0.999 ± 0.051
AGAAGTACGT	1.04 ± 0.013
TGAAGAACGC	1.07 ± 0.021
ATCCGAAGAT	1.04 ± 0.016
TTGATCTTGA	0.955 ± 0.085
TCGTGTACTG	1.041 ± 0.006
AAAGTTCCTA	0.968 ± 0.033
AGAAGAGTTT	0.95 ± 0.018
TACAAAGAGT	1.04 ± 0.025
AGCATGATGG	1.04 ± 0.021
GGGTTTCAGT	0.9503 ± 0.0066
ATCAGGTTCT	1.028 ± 0.0031
TTGAGGGTGC	1.01 ± 0.022
GGAGGCGGTG	1.048 ± 0.0039
TGAAATGCTA	1.036 ± 0.0073

Sequence	switch fluorescence ratio
AGTACGATTG	1 ± 0.023
ACGGTCGACT	1.05 ± 0.057
TTAAGACTTG	1 ± 0.012
AGGGCGGGTA	1.01 ± 0.014
AAAAGATTTT	1.06 ± 0.14
CAAGCGTCAC	1.12 ± 0.019
GGGTTTGCAC	1.03 ± 0.026
GAGTTCACGT	1.04 ± 0.013
TATGTTAGTC	0.988 ± 0.054
AGTACCAATG	1.03 ± 0.039
GCAGGACGGA	1.03 ± 0.04
AGGGTTAACA	1.01 ± 0.016
TTATAAGCAG	1.02 ± 0.017
ATGTGTTACG	1.05 ± 0.012
GGGGGGGGC	0.989 ± 0.061
TCAGTTGGTT	0.977 ± 0.064
ATGCATAGAT	1.01 ± 0.032
TTAACATGTG	0.9593 ± 0.0034
TAAAAAGAGC	0.984 ± 0.022
ACAAGTATGT	1.02 ± 0.041
GTCGTAAGAG	0.98 ± 0.041
TCAATGGTTT	1.12 ± 0.21
TTAAAGCTTA	1.02 ± 0.04

Sequence	switch fluorescence ratio
TTTCGAATTT	1.02 ± 0.04
CGGGATATAT	0.994 ± 0.028
ATGAAGTTGT	1.019 ± 0.01
CGCACCTGTA	1.04 ± 0.037
GGGGGCTTAC	1.01 ± 0.021
TGCGGATATA	1.04 ± 0.043
GTTACTGTGC	1.08 ± 0.025
GGGAGAGTTG	0.993 ± 0.023
TTTGGACTGT	0.988 ± 0.019
TTGGCGCCTG	0.9947 ± 0.0075
TGAGGGCATT	1 ± 0.012
GAAGATTGGG	0.998 ± 0.053
CAGTTTTGAT	0.998 ± 0.019
AAGGTAATCC	1.01 ± 0.039
CATATGTGCG	0.992 ± 0.023
TTGCACGTAA	1.66 ± 0.42
AGGGGGATCG	0.9794 ± 0.0018
GAATTGAGCA	0.996 ± 0.019
ATAGCAGTTA	1.02 ± 0.01
CTAAACGGTG	1.03 ± 0.012
ACTAGAGCGA	1.11 ± 0.11
AGTTGTGTGG	1.02 ± 0.023
TTTCGGGTGC	1.05 ± 0.056

Sequence	switch fluorescence ratio
TTCAGCTGAG	0.9861 ± 0.0091
GCGGTTTCCT	1.02 ± 0.037
TATCGAAGGC	0.982 ± 0.022
ATTATTTCCC	1.05 ± 0.082
TATGCATTTC	1.08 ± 0.0049
TATGTAGATT	1.017 ± 0.01
ATAGAAGTTA	0.985 ± 0.031
TGGCCTTGTG	1.02 ± 0.051
CTCTGGCGTT	1.51 ± 0.66
AACTGAAGTC	0.976 ± 0.01
CAATAATATG	0.993 ± 0.029
GGGGACGTGG	0.965 ± 0.011
CGCGCCGTTG	1 ± 0.011
TTGGAAAAGT	0.988 ± 0.036
ATGGCGAGGG	0.989 ± 0.017
TCGAACGTTT	1.324 ± 0.0088
GGTACCAGGC	1.019 ± 0.0021
ATTGAGAGAT	1.03 ± 0.014
GCTGATCTTA	0.998 ± 0.034
TAAGGGGCGT	1.03 ± 0.035
GTGGCAACAA	0.984 ± 0.035
GCTCGGGTGT	1.15 ± 0.33
AACCTGTCGC	1.3964 ± 0.0013

Sequence	switch fluorescence ratio
GGGCTAGATG	1 ± 0.018
CGTCTTTTGG	1.02 ± 0.025
ATATTGCTGA	0.978 ± 0.078
GAATGGATGG	1 ± 0.011
CTAGCCTCTT	0.995 ± 0.027
GTTGGAGCCT	0.995 ± 0.065
TGTACGTAGG	1.24 ± 0.21
GGGCAAGTGG	0.959 ± 0.014
AGGGTTCTGG	0.971 ± 0.028
TTGGGTTATT	0.979 ± 0.029
GGTTAAGAGG	1.02 ± 0.041
GATAATCGAG	1.02 ± 0.018
AGTTGGAGCT	0.95964 ± 9.2e-05
AAAGCGGGGC	1.02 ± 0.015
AATTAAGTGT	0.969 ± 0.021
TTTTTGTCAC	1.03 ± 0.038
GAGGATAGGG	0.9768 ± 0.0037
TATTAGGGGA	1.02 ± 0.013
AAGTTTGGGC	0.98 ± 0.036
